B1: TT-Ab7 (antibody, V domains shown)
VH: EVQLVESGGGWVQPGGSLRLSCAASGFTFNSFGSYGMSWVRQAPGKGLEWVSHISASGAATYYADSVKGRFTISRDNSKNTLLLQMNDLRGEDTATYYCARSVQQYLGLLGYWGQGTLVTVSS
VL: QSVLTQSPSASASLGATVKLTCTLSSGHTNYAIAWHQLQPQKAPRYLLKISNDGSHKRGDGIPDRFSGSSSGAERYLTISSLQSEDEAEYYCQTWGAGMGMFGGGTKLTVL
notes: IgG1
B2: TT-Ab9 (antibody, V domains shown)
VH: EVQLVESGGSLVQPGGSLRLSCVGTGFTFNTYWMSWVRQAPGKGLEWVANIKQDGREKHYVDSVMGRFTVSRDNAMNALYLQVNSLRVEDTAVYYCARGMTAWSLGGYQYDYWGQGTQVTVSS
VL: DIQMTQSPSSLSASVGDTVTITCRASQGIRSDLGWYQQRPGKAPKLLVYTASTLQTGVPSRFSGSGFGTDFTLTISSLQPEDFATYYCLQNYNYPRTFGQGTKVEIK
notes: IgG1
B3: TT-Ab10 (antibody, V domains shown)
VH: EVQLVESGGGLVQPGGSLRVSCGASGFTFANFWMSWVRQAPGKGLEWVANINQDGNERKYVDSVKGRFTISRDNDKNSLYLQMNSLRAEDTAVYFCAREYGSYWRTYYFDDWGQGTLVTVSS
VL: DIVMTQSPATLSLSPGERATLSCRASQSVSNYLAWYQQKPGQAPRLLIYDASNRASGTPARFSGSGFGTDFTLTISSLDPEDFAVYYCQQGSNWLTFGGGTKVEIK
notes: IgG1
B4: TT-Ab3 (antibody, V domains shown)
VH: EVQLVQSGAEVKKPGSSVKVSCKVSGGAFNSYAISWVRQAPGQGLEWMGGIIPILRTANYTEKFQGRVTINADKSTNTAYMELSKLRSEDTAVYYCARVWGTTVTKGPSQIKYYYYGMDVWGQGTTVTVSS
VL: DIQMTQSPSSLSASVGDRVTISCRASQSISNYLNWYHQKPGKAPKLLIYAASSLQSGVPSRFSGSGSGTDFTLTISSLQPEDFATYYCQQSYSTPLTFGGGTKVEIK
notes: IgG1
B5: TT-Ab4 (antibody, V domains shown)
VH: EVQLVQSGAEMKKPGSSVKVSCRMSGGKFNNYAMSWVRQAPGQGLEWVGGIIPVLGTANYAQKFQDRVAITADKSTNTAYMELSSLRSDDTAVYYCARVWGTVVTQGPSQVQYNHYGMDVWGQGTTVTVSS
VL: DIQLTQSPSSLSASVGDRVTITCRATQSISSSLNWYQHKPGKAPNLLISAASNLQSGVPSRFSGSGSRTDFTLTITNLQPEDFATYYCQQSYTTPLTFGGGTKVEIK
notes: IgG1
B6: TT-Ab12 (antibody, V domains shown)
VH: QVQLQESGPGLVKPSETLSLTCNVSGASISRYYWAWIRQPPGKGLEWIGYIYDSGTTTYNTSLKSRVTISRDTSKNQFSLNMMSVTAADTAVYYCARARYYYDSTGYFYGWLDPWGQGRLVTVSF
VL: DIQMTQSPSTLSASVGDRVTITCRASQSINIWLAWYQQRPGKAPDLLIYKASTLQSGVPSRFSGSGSGTEFTLTISSVQPDDFATYYCQQYKSYSCSFGQGTKVEIN
notes: IgG1

Consider six molecules from publication PMC5551578 (The Journal of Experimental Medicine, 2017).

The target in this assay is T1, tetanus toxoid (Clostridium tetani, production strain …, UniProt P04958, biotin (biotinylated antigen)).
T1 construct: also called TT
T1 sequence (P04958 whole entry): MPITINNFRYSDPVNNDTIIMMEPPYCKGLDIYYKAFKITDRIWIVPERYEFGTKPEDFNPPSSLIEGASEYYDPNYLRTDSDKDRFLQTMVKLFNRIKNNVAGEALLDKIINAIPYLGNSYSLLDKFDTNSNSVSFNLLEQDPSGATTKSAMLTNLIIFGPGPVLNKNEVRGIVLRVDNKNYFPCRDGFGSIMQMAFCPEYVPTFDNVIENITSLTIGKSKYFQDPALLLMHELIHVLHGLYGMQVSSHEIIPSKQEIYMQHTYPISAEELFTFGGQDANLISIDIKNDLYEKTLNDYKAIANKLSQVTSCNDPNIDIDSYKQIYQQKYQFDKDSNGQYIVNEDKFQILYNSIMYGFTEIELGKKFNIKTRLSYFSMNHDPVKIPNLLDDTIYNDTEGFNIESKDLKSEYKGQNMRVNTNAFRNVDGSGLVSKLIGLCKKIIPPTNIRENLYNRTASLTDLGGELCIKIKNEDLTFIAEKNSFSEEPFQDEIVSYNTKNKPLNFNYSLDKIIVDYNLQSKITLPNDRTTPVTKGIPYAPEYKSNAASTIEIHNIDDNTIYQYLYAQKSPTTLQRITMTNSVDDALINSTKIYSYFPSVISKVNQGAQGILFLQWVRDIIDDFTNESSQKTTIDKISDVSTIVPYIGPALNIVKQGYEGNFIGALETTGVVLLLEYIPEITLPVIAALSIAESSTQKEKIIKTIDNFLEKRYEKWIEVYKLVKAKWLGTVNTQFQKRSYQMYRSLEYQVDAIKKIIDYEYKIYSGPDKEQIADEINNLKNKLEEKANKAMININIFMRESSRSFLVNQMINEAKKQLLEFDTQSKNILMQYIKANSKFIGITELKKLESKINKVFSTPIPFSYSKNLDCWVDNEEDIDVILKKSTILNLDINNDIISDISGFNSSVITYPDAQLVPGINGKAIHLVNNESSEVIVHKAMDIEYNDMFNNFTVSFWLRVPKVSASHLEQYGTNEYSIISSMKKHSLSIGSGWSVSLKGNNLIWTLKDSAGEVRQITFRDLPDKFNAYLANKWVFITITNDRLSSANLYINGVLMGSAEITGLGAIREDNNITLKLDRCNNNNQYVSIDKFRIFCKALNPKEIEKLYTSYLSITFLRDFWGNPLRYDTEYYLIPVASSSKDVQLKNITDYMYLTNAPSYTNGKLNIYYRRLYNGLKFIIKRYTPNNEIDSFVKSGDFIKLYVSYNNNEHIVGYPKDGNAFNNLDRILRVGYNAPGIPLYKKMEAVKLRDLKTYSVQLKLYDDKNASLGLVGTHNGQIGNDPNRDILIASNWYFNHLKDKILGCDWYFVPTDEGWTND
The assay is described as follows: BLI. For orientation: In BLI a coated tip is dipped into the sample, and binding shifts an interference pattern.
B1 registered a Kd of 0.0185 nM and a dissociation rate constant (koff) of 3.46e-06 s⁻¹.

For B2, the Kd was found to be 6.64 nM and the koff is 0.000919 s⁻¹.

For B3, the Kd stood at 1.59 nM and the koff turned out to be 0.000243 s⁻¹.

In the case of B4, binding was characterised by a dissociation constant (Kd) of 1.61 nM and the koff stood at 0.00013 s⁻¹.

The molecule B5 registered a Kd of 0.0137 nM and a koff of 2.27e-06 s⁻¹.

In turn, B6 gave a Kd of 1.95 nM and a koff of 0.000307 s⁻¹.

Usually Kd stands for the concentration at which binding is half-saturated. A higher Kd goes with lower affinity. One may read the koff as a measure of how fast the partners let go of each other. Read a high koff as a short-lived complex.
